Laboratory results published in publication PMC3436766, “Distinct and Contrasting Transcription Initiation Patterns at Mycobacterium tuberculosis Promoters”.

What was measured:
[1] = molecular target: T1, RNA polymerase holoenzyme with sigma A (RNAP-σA) (Mycobacterium smegmatis SM07, UniProt A0QSL8;P60281;A0QS66;A0QWT1;A0QW02 1-350;1-1169;1-1317;1-107;1-466); experiment: EMSA; conditions: protein: native; chain copies: 2;1;1;1;1; label: 5'-32P on one strand; blunt
[2] = molecular target: T1, RNA polymerase holoenzyme with sigma A …; experiment: EMSA; closed complex (KB), on ice 20 min; conditions: protein: native; chain copies: 2;1;1;1;1; label: 5'-32P on one strand; blunt

B1: PgyrB1 (dsDNA)
DNA 1: GGTAAAAACGAGGCCGAGCACTCGGCCCTGGCGCCCGATCACGGTACAGTGGTGTGCGACCCCCTGCGGCGACTC
DNA 2: GAGTCGCCGCAGGGGGTCGCACACCACTGTACCGTGATCGGGCGCCAGGGCCGAGTGCTCGGCCTCGTTTTTACC
Kd [1]: 68 ± 12.2 x 10^7 M (as printed; exponent implausible, probably nM)
Ka [2]: 2.1 ± 0.03 10^7 M^-1
